The target in test [1] is T1, B7-H3 on B7H3-expressing A375 and A375.S2 cells (UniProt Q5ZPR3 29-534, limits assumed).
T1 construct: whole, on cells
T1 sequence (looked up): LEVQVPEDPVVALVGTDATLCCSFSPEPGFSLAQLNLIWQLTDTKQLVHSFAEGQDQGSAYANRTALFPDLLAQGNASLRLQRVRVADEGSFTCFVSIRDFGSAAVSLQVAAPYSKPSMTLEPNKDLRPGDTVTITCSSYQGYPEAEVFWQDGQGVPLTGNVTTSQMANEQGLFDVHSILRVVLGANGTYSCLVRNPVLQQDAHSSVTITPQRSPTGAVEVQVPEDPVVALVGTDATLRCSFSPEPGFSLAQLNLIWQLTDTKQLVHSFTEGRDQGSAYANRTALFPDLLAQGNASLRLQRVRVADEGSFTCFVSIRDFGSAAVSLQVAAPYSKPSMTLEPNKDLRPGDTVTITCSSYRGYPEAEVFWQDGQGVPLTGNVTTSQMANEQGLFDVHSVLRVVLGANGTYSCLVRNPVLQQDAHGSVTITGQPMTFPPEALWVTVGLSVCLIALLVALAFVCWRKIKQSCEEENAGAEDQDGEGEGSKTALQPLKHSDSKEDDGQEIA
The test can be described thus: cell-based binding on A375 and A375.S2 cells (FIG. 13).

Test [2] addresses T1, B7-H3 on B7H3-expressing A375 and …. The test can be described thus: binding to B7H3-expressing A375 cell line (FIG. 18).
Method: The binding of these prodrugs against B7H3-expressing A375 cell line were tested.
For test [3] the target is unchanged. Briefly: cell-based binding assay (FIG. 15A).
Test [4] has the same target. Briefly: FACS on B7H3-expressing A375 and A375.S2 cells.

Here are results for eight molecules from US20240182541A1 (CONCEPT TO MEDICINE BIOTECH, published 2024).

B1: Format 29 (KIH CH3Δ6 mask + cleavable linker PLGLAG on MGA017 variable regions, mIgG1) (antibody)
heavy: GQPREPQVCTLPPSRDELTKNQVSLSCAVKGFYPSDIAVEWESNGQPENNYKTTPPVLDSDGSFFLVSKLTVDKSRWQQGNVFSCSVMHEALHNHYTQKSLPLGLAGEVQLVESGGGLVKPGGSLRLSCAASGFTFSSYGMSWVRQAPGKGLEWVATINSGGSNTYYPDSLKGRFTISRDNAKNSLYLQMNSLRAEDTAVYYCARHDGGAMDYWGQGTTVTVSSAKTTPPSVYPLAPGSAAQTNSMVTLGCLVKGYFPEPVTVTWNSGSLSSGVHTFPAVLQSDLYTLSSSVTVPSSTWPSETVTCNVAHPASSTKVDKKIVPRDCGCKPCICTVPEVSSVFIFPPKPKDVLTITLTPKVTCVVVDISKDDPEVQFSWFVDDVEVHTAQTQPREEQFNSTFRSVSELPIMHQDWLNGKEFKCRVNSAAFPAPIEKTISKTKGRPKAPQVYTIPPPKEQMAKDKVSLTCMITDFFPEDITVEWQWNGQPAENYKNTQPIMDTDGSYFVYSKLNVQKSNWEAGNTFTCSVLHEGLHNHHTEKSLSHSPGK
light: GQPREPQVYTLPPCRDELTKNQVSLWCLVKGFYPSDIAVEWESNGQPENNYKTTPPVLDSDGSFFLYSKLTVDKSRWQQGNVFSCSVMHEALHNHYTQKSLPLGLAGDIQMTQSPSSLSASVGDRVTITCRASESIYSYLAWYQQKPGKAPKLLVYNTKTLPEGVPSRFSGSGSGTDFTLTISSLQPEDFATYYCQHHYGTPPWTFGQGTRLEIKRADAAPTVSIFPPSSEQLTSGGASVVCFLNNFYPKDINVKWKIDGSERQNGVLNSWTDQDSKDSTYSMSSTLTLTKDEYERHNSYTCEATHKTSTSPIVKSFNRNEC
notes: Antibody prodrug against B7-H3, uncleaved
Consider B1, for which, in test [1], the binding result is on record as “binds”.

B2: Format 28 (KIH CH3Δ6 mask + cleavable linker IPVSLRSG on MGA017 variable regions, mIgG1) (antibody)
heavy: GQPREPQVCTLPPSRDELTKNQVSLSCAVKGFYPSDIAVEWESNGQPENNYKTTPPVLDSDGSFFLVSKLTVDKSRWQQGNVFSCSVMHEALHNHYTQKSLIPVSLRSGEVQLVESGGGLVKPGGSLRLSCAASGFTFSSYGMSWVRQAPGKGLEWVATINSGGSNTYYPDSLKGRFTISRDNAKNSLYLQMNSLRAEDTAVYYCARHDGGAMDYWGQGTTVTVSSAKTTPPSVYPLAPGSAAQTNSMVTLGCLVKGYFPEPVTVTWNSGSLSSGVHTFPAVLQSDLYTLSSSVTVPSSTWPSETVTCNVAHPASSTKVDKKIVPRDCGCKPCICTVPEVSSVFIFPPKPKDVLTITLTPKVTCVVVDISKDDPEVQFSWFVDDVEVHTAQTQPREEQFNSTFRSVSELPIMHQDWLNGKEFKCRVNSAAFPAPIEKTISKTKGRPKAPQVYTIPPPKEQMAKDKVSLTCMITDFFPEDITVEWQWNGQPAENYKNTQPIMDTDGSYFVYSKLNVQKSNWEAGNTFTCSVLHEGLHNHHTEKSLSHSPGK
light: GQPREPQVYTLPPCRDELTKNQVSLWCLVKGFYPSDIAVEWESNGQPENNYKTTPPVLDSDGSFFLYSKLTVDKSRWQQGNVFSCSVMHEALHNHYTQKSLIPVSLRSGDIQMTQSPSSLSASVGDRVTITCRASESIYSYLAWYQQKPGKAPKLLVYNTKTLPEGVPSRFSGSGSGTDFTLTISSLQPEDFATYYCQHHYGTPPWTFGQGTRLEIKRADAAPTVSIFPPSSEQLTSGGASVVCFLNNFYPKDINVKWKIDGSERQNGVLNSWTDQDSKDSTYSMSSTLTLTKDEYERHNSYTCEATHKTSTSPIVKSFNRNEC
notes: as for B1
On to B2, for which, in test [1], the binding result was “binds”.

B3: Format 33 (IgG1 CH3Δ6 hole / IgG4 CH3Δ6 knob mask + GGGS on MGA017 variable regions, hIgG1) (antibody)
heavy: not shown
light: GQPREPQVYTLPPCQEEMTKNQVSLWCLVKGFYPSDIAVEWESNGQPENNYKTTPPVLDSDGSFFLYSRLTVDKSRWQEGNVFSCSVMHEALHNHYTQKSLGGGSDIQMTQSPSSLSASVGDRVTITCRASESIYSYLAWYQQKPGKAPKLLVYNTKTLPEGVPSRFSGSGSGTDFTLTISSLQPEDFATYYCQHHYGTPPWTFGQGTRLEIKRTVAAPSVFIFPPSDEQLKSGTASVVCLLNNFYPREAKVQWKVDNALQSGNSQESVTEQDSKDSTYSLSSTLTLSKADYEKHKVYACEVTHQGLSSPVTKSFNRGEC
notes: Antibody prodrug against B7-H3
Consider B3, for which the binding result in test [2] was “binds”.

B4: Format 31 (KIH CH3Δ6 mask + cleavable linker IPVSLRSGPLGLAG on MGA017 variable regions, mIgG1) (antibody)
heavy: GQPREPQVCTLPPSRDELTKNQVSLSCAVKGFYPSDIAVEWESNGQPENNYKTTPPVLDSDGSFFLVSKLTVDKSRWQQGNVFSCSVMHEALHNHYTQKSLIPVSLRSGPLGLAGEVQLVESGGGLVKPGGSLRLSCAASGFTFSSYGMSWVRQAPGKGLEWVATINSGGSNTYYPDSLKGRFTISRDNAKNSLYLQMNSLRAEDTAVYYCARHDGGAMDYWGQGTTVTVSSAKTTPPSVYPLAPGSAAQTNSMVTLGCLVKGYFPEPVTVTWNSGSLSSGVHTFPAVLQSDLYTLSSSVTVPSSTWPSETVTCNVAHPASSTKVDKKIVPRDCGCKPCICTVPEVSSVFIFPPKPKDVLTITLTPKVTCVVVDISKDDPEVQFSWFVDDVEVHTAQTQPREEQFNSTFRSVSELPIMHQDWLNGKEFKCRVNSAAFPAPIEKTISKTKGRPKAPQVYTIPPPKEQMAKDKVSLTCMITDFFPEDITVEWQWNGQPAENYKNTQPIMDTDGSYFVYSKLNVQKSNWEAGNTFTCSVLHEGLHNHHTEKSLSHSPGK
light: GQPREPQVYTLPPCRDELTKNQVSLWCLVKGFYPSDIAVEWESNGQPENNYKTTPPVLDSDGSFFLYSKLTVDKSRWQQGNVFSCSVMHEALHNHYTQKSLIPVSLRSGPLGLAGDIQMTQSPSSLSASVGDRVTITCRASESIYSYLAWYQQKPGKAPKLLVYNTKTLPEGVPSRFSGSGSGTDFTLTISSLQPEDFATYYCQHHYGTPPWTFGQGTRLEIKRADAAPTVSIFPPSSEQLTSGGASVVCFLNNFYPKDINVKWKIDGSERQNGVLNSWTDQDSKDSTYSMSSTLTLTKDEYERHNSYTCEATHKTSTSPIVKSFNRNEC
notes: as for B1
B4: the binding result in test [3] is “binds”.

B5: Format 34 (CLκ on VH / CH1 plus EPKSC on VL as mask + GGGS on MGA017 variable regions, hIgG1) (antibody)
heavy: not shown
light: ASTKGPSVFPLAPSSKSTSGGTAALGCLVKDYFPEPVTVSWNSGALTSGVHTFPAVLQSSGLYSLSSVVTVPSSSLGTQTYICNVNHKPSNTKVDKKVEPKSCGGGSDIQMTQSPSSLSASVGDRVTITCRASESIYSYLAWYQQKPGKAPKLLVYNTKTLPEGVPSRFSGSGSGTDFTLTISSLQPEDFATYYCQHHYGTPPWTFGQGTRLEIKRTVAAPSVFIFPPSDEQLKSGTASVVCLLNNFYPREAKVQWKVDNALQSGNSQESVTEQDSKDSTYSLSSTLTLSKADYEKHKVYACEVTHQGLSSPVTKSFNRGEC
notes: as for B3
As for B5, in test [2], the binding result is reported as “binds”.

B6: Format 30 (KIH CH3Δ6 mask + cleavable linker PLGLAGGGGS on MGA017 variable regions, mIgG1) (antibody)
heavy: GQPREPQVCTLPPSRDELTKNQVSLSCAVKGFYPSDIAVEWESNGQPENNYKTTPPVLDSDGSFFLVSKLTVDKSRWQQGNVFSCSVMHEALHNHYTQKSLPLGLAGGGGSEVQLVESGGGLVKPGGSLRLSCAASGFTFSSYGMSWVRQAPGKGLEWVATINSGGSNTYYPDSLKGRFTISRDNAKNSLYLQMNSLRAEDTAVYYCARHDGGAMDYWGQGTTVTVSSAKTTPPSVYPLAPGSAAQTNSMVTLGCLVKGYFPEPVTVTWNSGSLSSGVHTFPAVLQSDLYTLSSSVTVPSSTWPSETVTCNVAHPASSTKVDKKIVPRDCGCKPCICTVPEVSSVFIFPPKPKDVLTITLTPKVTCVVVDISKDDPEVQFSWFVDDVEVHTAQTQPREEQFNSTFRSVSELPIMHQDWLNGKEFKCRVNSAAFPAPIEKTISKTKGRPKAPQVYTIPPPKEQMAKDKVSLTCMITDFFPEDITVEWQWNGQPAENYKNTQPIMDTDGSYFVYSKLNVQKSNWEAGNTFTCSVLHEGLHNHHTEKSLSHSPGK
light: GQPREPQVYTLPPCRDELTKNQVSLWCLVKGFYPSDIAVEWESNGQPENNYKTTPPVLDSDGSFFLYSKLTVDKSRWQQGNVFSCSVMHEALHNHYTQKSLPLGLAGGGGSDIQMTQSPSSLSASVGDRVTITCRASESIYSYLAWYQQKPGKAPKLLVYNTKTLPEGVPSRFSGSGSGTDFTLTISSLQPEDFATYYCQHHYGTPPWTFGQGTRLEIKRADAAPTVSIFPPSSEQLTSGGASVVCFLNNFYPKDINVKWKIDGSERQNGVLNSWTDQDSKDSTYSMSSTLTLTKDEYERHNSYTCEATHKTSTSPIVKSFNRNEC
notes: as for B1
As to B6, the binding result in test [1] is “binds”.

B7: MGA017 (parental naked anti-B7-H3 antibody) (antibody, V domains shown)
VH: EVQLVESGGGLVKPGGSLRLSCAASGFTFSSYGMSWVRQAPGKGLEWVATINSGGSNTYYPDSLKGRFTISRDNAKNSLYLQMNSLRAEDTAVYYCARHDGGAMDYWGQGTTVTVSS
VL: DIQMTQSPSSLSASVGDRVTITCRASESIYSYLAWYQQKPGKAPKLLVYNTKTLPEGVPSRFSGSGSGTDFTLTISSLQPEDFATYYCQHHYGTPPWTFGQGTRLEIK
notes: Anti-B7-H3 antibody from MacroGenics; also called un-masked MGA017; parental naked antibody of Format 12
As to B7, the binding result in test [4] was “binds”.

B8: MGA017-mIgG1 (parental antibody of Formats 28-31) (antibody, V domains shown)
VH: EVQLVESGGGLVKPGGSLRLSCAASGFTFSSYGMSWVRQAPGKGLEWVATINSGGSNTYYPDSLKGRFTISRDNAKNSLYLQMNSLRAEDTAVYYCARHDGGAMDYWGQGTTVTVSS
VL: DIQMTQSPSSLSASVGDRVTITCRASESIYSYLAWYQQKPGKAPKLLVYNTKTLPEGVPSRFSGSGSGTDFTLTISSLQPEDFATYYCQHHYGTPPWTFGQGTRLEIK
notes: mIgG1; also called parental antibody MGA017; naked antibody MGA017
On to B8, for which the binding result in test [1] is on record as “binds”.
